# Data taken from patent publication US10208288B2, “Differentiation of human embryonic stem cells into pancreatic endocrine cells” (Janssen Biotech, Inc., priority 2012, dated 2019).
# System: cells of the human embryonic stem cell line H1 differentiated to stage 5
# Experiment: Immunostaining for insulin protein expression at the end of Stage 5
# Format: cell-based
# Details: 50 or 100 ng/ml for three days at stage 5, immunostaining vs control; FIG. 2, FIG. 3
# Protocol: Cells of the human embryonic stem cell line H1 (hESC H1, passage 40) were seeded as single cells at 1×10^5 cells/cm^2 on MATRIGEL™ (1:30 dilution; BD Biosciences, NJ)-coated dishes in mTeSR®1 media supplemented with 10 μM of Y27632. Forty-eight hours post seeding, cultures were washed in incomplete PBS (phosphate buffered saline without Mg or Ca). Cultures were differentiated into pancreatic endoderm/endocrine lineages as follows: • a) Stage 1 (Definitive Endoderm (DE)—3 days): Cells were cultured for one day in stage 1 media (see Example 1, above). Cells were then cultured for an additional day in MCDB-131 medium supplemented with 0.1% fatty acid-free BSA, 0.0012 g/ml sodium bicarbonate, 1× GlutaMax™, 4.5 mM D-Glucose, 100 ng/ml GDF8, and 0.1 μM MCX compound. […]
molecule,measurement,value
"Ephrin-A4: Ephrin ligand protein, R & D Systems catalogue number 369-EA (protein, UniProt P52798 26-170, looked up) Ephrin-A4: LRHVVYWNSSNPRLLRGDAVVELGLNDYLDIVCPHYEGPGPPEGPETFALYMVDWPGYESCQAEGPRAYKRWVCSLPFGHVQFSEKIQRFTPFSLGFEFLPGETYYYISVPTPESSGQCLRLQVSVCCKERKSESAHPVGSPGES",protein expression of insulin,significantly enhanced
